± gives the uncertainty stated by the source.
Assay: protein stability index of a GFP-peptide fusion (yeast GPS) (PSI 1-4); higher = more stable; sorted into four equal gates, so the index is relative within each strain
Outline: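 Peptides tiling yeast proteins in 17-residue segments were fused downstream of GFP, with Cherry expressed from the same plasmid. As a pooled library in yeast, mid-log cultures grown in leucine-free medium were sorted into four equal gates by GFP/Cherry fluorescence ratio. Gate plasmids were PCR-amplified and Illumina-sequenced, and barcodes linked reads to strains. Each peptide received a protein stability index equal to the sum of each gate's read frequency times its gate number.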

Sequence	protein stability index (doa10∆)	protein stability index (pdr5∆)	protein stability index (san1∆)	protein stability index (ubr1∆)
AFHNNLKFLYLLDAYSH [MED1]	1.16 ± 0.07	1.25 ± 0.049	1.16 ± 0.1	1.26 ± 0.042
MNRRKIAMPKRRMAFKP [YLR335W/NUP2]	2.71 ± 0.076	2.35 ± 0.14	2.91 ± 0.071	3.13 ± 0.13
SSEQDYSTLKELLEYSD [YCG1]	2.92 ± 0.082	2.75 ± 0.088	3.15 ± 0.068	3.15 ± 0.086
ELGEKKNEKLKFQETLL [ISW2]	2.86 ± 0.096	2.7 ± 0.1	2.85 ± 0.11	2.88 ± 0.12
TTKERKKSRLGNSFHLM [PRP8]	2.7 ± 0.066	2.83 ± 0.065	2.57 ± 0.062	2.48 ± 0.054
SNPQHIIQPFLDNSKMD [RGR1]	2.91 ± 0.062	2.98 ± 0.075	2.53 ± 0.077	2.86 ± 0.034
FIVSGTASDQLFGMCES [PUP3]	2.41 ± 0.046	2.46 ± 0.045	2.63 ± 0.056	2.53 ± 0.039
QPEVAVKAAINFSNVTD [YIL149C/MLP2]	2.21 ± 0.064	2.44 ± 0.055	2.2 ± 0.071	2.55 ± 0.048
ISLSFSRPASYGYFSVG [SIR4]	1.78 ± 0.073	1.82 ± 0.06	1.81 ± 0.11	2.07 ± 0.052
LSNIPLLLITHHSWSQS [ARP9]	2.25 ± 0.075	1.6 ± 0.045	1.51 ± 0.073	1.96 ± 0.047
LDESSEQKNTAKEELNG [YIL149C/MLP2]	3.1 ± 0.15	2.95 ± 0.27	3.21 ± 0.072	3.22 ± 0.087
LYASDYASYFPYLLETY [RPN7]	1.62 ± 0.077	1.83 ± 0.086	1.39 ± 0.09	1.18 ± 0.044
NSDKPRDVYVFDKVEVQ [DIS3]	2.96 ± 0.058	2.93 ± 0.066	3.1 ± 0.056	3 ± 0.059
NEVIDKLKNENTDLKDI [PCI8]	2.87 ± 0.066	3.04 ± 0.053	3.01 ± 0.048	3.13 ± 0.041
DNKINEIKLLEISCKQW [CSI1]	2.54 ± 0.18	2.43 ± 0.17	2.17 ± 0.12	2.45 ± 0.12
LPPNWKYESATASALVN [RPS13]	2.21 ± 0.081	2.59 ± 0.095	2.69 ± 0.064	2.12 ± 0.049
KNFKGIEEIEYNVKNII [PCI8]	3.05 ± 0.078	3.04 ± 0.093	3.11 ± 0.061	3.05 ± 0.063
SGQTPVQSKARYTVRTF [RPL11A]	2.29 ± 0.094	2.06 ± 0.081	1.72 ± 0.13	1.71 ± 0.089
RTPVIISLRNNHKIIAR [SMD2]	1.77 ± 0.042	1.97 ± 0.035	2.13 ± 0.06	1.81 ± 0.044
GPVAAQFTKVIDEPIKS [FAS1]	1.8 ± 0.2	2.41 ± 0.092	2.15 ± 0.14	2 ± 0.052
GGNSNKSPPQFFYNISS [SIN4]	2.76 ± 0.043	3.04 ± 0.049	2.76 ± 0.037	2.58 ± 0.041
QNAKLLANLIRDALRNI [RRP6]	2.17 ± 0.055	2.18 ± 0.062	2.36 ± 0.084	2.23 ± 0.043
ELLSKYKEQIIQGFYWA [SNU114]	2.99 ± 0.073	2.4 ± 0.067	2.47 ± 0.077	2.17 ± 0.085
VTQNVLGLEYIIRLLPI [SRB8]	1.55 ± 0.12	1.68 ± 0.14	1.39 ± 0.25	1.63 ± 0.21
KHITVRLTAKRLIEHDP [SRP14]	2.35 ± 0.057	2.52 ± 0.044	2.51 ± 0.064	2.65 ± 0.035

Reference: the supplement of paper PMC9732359
